This note sets out measurements from US20020072115A1.

The target of the test is α6 integrin (mouse) (UniProt Q61739). As to the kind of experiment: cell-based or functional assay.
Sequence of UniProt Q61739 (Q61739 24-1091): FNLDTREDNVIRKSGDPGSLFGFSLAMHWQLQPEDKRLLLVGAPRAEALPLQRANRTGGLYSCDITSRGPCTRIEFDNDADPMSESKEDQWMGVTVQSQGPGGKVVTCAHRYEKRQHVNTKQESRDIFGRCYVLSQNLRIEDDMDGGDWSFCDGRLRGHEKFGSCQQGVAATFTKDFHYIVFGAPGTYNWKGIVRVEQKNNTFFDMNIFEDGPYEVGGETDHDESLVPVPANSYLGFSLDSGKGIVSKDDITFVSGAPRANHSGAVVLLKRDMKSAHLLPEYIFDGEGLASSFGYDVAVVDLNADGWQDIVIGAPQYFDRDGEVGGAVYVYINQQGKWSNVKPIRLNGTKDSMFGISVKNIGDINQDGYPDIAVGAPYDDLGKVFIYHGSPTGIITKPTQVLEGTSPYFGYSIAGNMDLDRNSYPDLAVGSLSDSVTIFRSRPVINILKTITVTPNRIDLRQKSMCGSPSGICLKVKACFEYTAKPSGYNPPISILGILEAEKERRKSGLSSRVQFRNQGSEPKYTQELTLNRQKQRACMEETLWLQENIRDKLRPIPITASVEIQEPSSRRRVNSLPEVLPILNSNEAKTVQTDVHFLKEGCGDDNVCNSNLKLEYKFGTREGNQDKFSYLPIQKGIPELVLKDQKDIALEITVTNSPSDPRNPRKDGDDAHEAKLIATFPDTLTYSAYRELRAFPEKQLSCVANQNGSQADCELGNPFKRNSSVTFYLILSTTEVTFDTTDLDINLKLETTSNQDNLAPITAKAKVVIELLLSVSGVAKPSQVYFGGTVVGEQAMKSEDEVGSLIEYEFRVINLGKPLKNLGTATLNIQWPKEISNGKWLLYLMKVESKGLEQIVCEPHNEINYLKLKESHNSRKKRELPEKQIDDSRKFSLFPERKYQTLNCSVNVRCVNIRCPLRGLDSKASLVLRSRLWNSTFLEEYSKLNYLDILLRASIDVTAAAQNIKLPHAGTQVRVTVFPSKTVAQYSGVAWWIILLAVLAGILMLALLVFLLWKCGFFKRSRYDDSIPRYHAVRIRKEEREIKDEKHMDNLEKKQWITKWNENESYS

As for “Rat monoclonal antibody (clone NKI-GoH3, IgG2a)”, the total cell number per well (13.5 dpc fetal mouse pancreas cells cultured with laminin-1) (cells per well) is 7190 and the β cell number per well (13.5 dpc fetal mouse pancreas cells cultured with laminin-1) (cells per well) amounted to 6890.
